Source: US20120270800A1 (published 2012)
Positions of bridges follow the written chain, without caps; N, C: chain ends. Non-standard residues stand in square brackets, D forms with d. No end group written: not given here. S5 = C=CCCC[C@](C)(N)C(=O)O; βAla = NCCC(=O)O

Target: mSin3
Assay: fluorescence polarization

Kd: 12 nM
B1: SID2 (peptide)
peptide: [βAla]VRRRI[S5]MLL[S5]AANYLER
modifications: staple 7-11; also: FITC-conjugated in the assay, site not given here
